Where a chain is given by its changes, count along the chain named. Names may count otherwise.
T1: TNFR1 (Homo sapiens, UniProt P19438)
T1 chain: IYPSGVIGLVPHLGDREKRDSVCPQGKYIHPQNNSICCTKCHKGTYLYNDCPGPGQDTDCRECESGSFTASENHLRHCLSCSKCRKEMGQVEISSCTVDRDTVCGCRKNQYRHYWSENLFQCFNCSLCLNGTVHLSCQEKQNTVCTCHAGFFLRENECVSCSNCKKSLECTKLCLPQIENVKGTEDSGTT

B1: A46Q (designed binder)
chain: SMEEEVEKAAKEYEKKKKEAIEKHLEKLKAKDKEAAERFLKELEEQAKEYAKDEAKTMSEEEAKRRAKKYKEKVLLSELSEEEQKEIKEAEEKLVRTILKYVEEAAK
B2: K100T (designed binder)
chain: B1 chain with Q46A, K100T
B3: K107L (designed binder)
chain: B1 chain with Q46A, K107L
B4: K93T (designed binder)
chain: B1 chain with Q46A, K93T
B5: Y101W (designed binder)
chain: B1 chain with Q46A, Y101W
B6: L40H (designed binder)
chain: B1 chain with L40H, Q46A
B7: E7K (designed binder)
chain: B1 chain with E7K, Q46A
B8: K33S (designed binder)
chain: B1 chain with K33S, Q46A
B9: Y70A (designed binder)
chain: B1 chain with Q46A, Y70A
B10: A9P (designed binder)
chain: B1 chain with A9P, Q46A
B11: Y101H (designed binder)
chain: B1 chain with Q46A, Y101H
B12: K85S (designed binder)
chain: B1 chain with Q46A, K85S
B13: A47T (designed binder)
chain: B1 chain with Q46A, A47T
B14: K18V (designed binder)
chain: B1 chain with K18V, Q46A
B15: K68Q (designed binder)
chain: B1 chain with Q46A, K68Q
B16: A105S (designed binder)
chain: B1 chain with Q46A, A105S
B17: E12I (designed binder)
chain: B1 chain with E12I, Q46A
B18: E91D (designed binder)
chain: B1 chain with Q46A, E91D
B19: E37Q (designed binder)
chain: B1 chain with E37Q, Q46A
B20: A47W (designed binder)
chain: B1 chain with Q46A, A47W
B21: E7G (designed binder)
chain: B1 chain with E7G, Q46A
B22: A63N (designed binder)
chain: B1 chain with Q46A, A63N
B23: E54P (designed binder)
chain: B1 chain with Q46A, E54P
B24: Q84W (designed binder)
chain: B1 chain with Q46A, Q84W
B25: K8A (designed binder)
chain: B1 chain with K8A, Q46A
B26: L99G (designed binder)
chain: B1 chain with Q46A, L99G
B27: A20Q (designed binder)
chain: B1 chain with A20Q, Q46A
B28: A10D (designed binder)
chain: B1 chain with A10D, Q46A
B29: K52F (designed binder)
chain: B1 chain with Q46A, K52F
B30: E45Y (designed binder)
chain: B1 chain with E45Y, Q46A
B31: K29H (designed binder)
chain: B1 chain with K29H, Q46A
B32: K107I (designed binder)
chain: B1 chain with Q46A, K107I
B33: A47I (designed binder)
chain: B1 chain with Q46A, A47I
B34: D32S (designed binder)
chain: B1 chain with D32S, Q46A
B35: Y70V (designed binder)
chain: B1 chain with Q46A, Y70V
B36: Q84Y (designed binder)
chain: B1 chain with Q46A, Q84Y
B37: K73V (designed binder)
chain: B1 chain with Q46A, K73V
B38: K48T (designed binder)
chain: B1 chain with Q46A, K48T
B39: K29A (designed binder)
chain: B1 chain with K29A, Q46A
B40: K52T (designed binder)
chain: B1 chain with Q46A, K52T
B41: K11R (designed binder)
chain: B1 chain with K11R, Q46A
B42: S59H (designed binder)
chain: B1 chain with Q46A, S59H
B43: A10L (designed binder)
chain: B1 chain with A10L, Q46A

Target: T1, TNFR1
Assay: yeast display SC50

apparent Kd (screen) | Binder
0.539 nM | B1
0.869 nM | B2
2.73 nM | B3
0.869 nM | B4
2.73 nM | B5
0.49 nM | B6
4.39 nM | B7
0.869 nM | B8
4.83 nM | B9
13.8 nM | B10
0.49 nM | B11
0.593 nM | B12
0.653 nM | B13
1.27 nM | B14
0.653 nM | B15
0.956 nM | B16
1.05 nM | B17
0.446 nM | B18
0.539 nM | B19
3 nM | B20
3 nM | B21
6.43 nM | B22

apparent Kd (screen) | Binder
7.07 nM | B23
12.5 nM | B24
0.593 nM | B25
5.31 nM | B26
1.69 nM | B27
0.49 nM | B28
1.05 nM | B29
2.73 nM | B30
0.593 nM | B31
1.86 nM | B32
0.49 nM | B33
0.446 nM | B34
22.2 nM | B35
13.8 nM | B36
10.4 nM | B37
0.49 nM | B38
0.446 nM | B39
0.446 nM | B40
0.593 nM | B41
0.593 nM | B42
0.956 nM | B43
